{"source": "paper PMC3257359", "about": "(Cell research, 2011)", "binders": {"B1": {"name": "CBP-1 peptide (coactivator LXXLL motif of CBP), N-terminally biotinylated (peptide)", "peptide": "Biotin-SGNLVPDAASKHKQLSELLRGGSG"}, "B2": {"name": "SRC1-2 peptide (coactivator LXXLL motif of steroid receptor coactivator 1), N-terminally biotinylated (peptide)", "peptide": "Biotin-SPSSHSSLTERHKILHRLLQEGSP"}, "B3": {"name": "SRC2-3 peptide (coactivator LXXLL motif of steroid receptor coactivator 2), N-terminally biotinylated (peptide)", "peptide": "Biotin-QEPVSPKKKENALLRYLLDKDDTKD"}, "B4": {"name": "SRC1-4 peptide (coactivator LXXLL motif of steroid receptor coactivator 1), N-terminally biotinylated (peptide)", "peptide": "Biotin-QKPTSGPQTPQAQQKSLLQQLLTE"}}, "molecular_target": "T1, human PPARγ LBD (residues 206-477) (human, UniProt P37231-2 206-477)", "T1 sequence": "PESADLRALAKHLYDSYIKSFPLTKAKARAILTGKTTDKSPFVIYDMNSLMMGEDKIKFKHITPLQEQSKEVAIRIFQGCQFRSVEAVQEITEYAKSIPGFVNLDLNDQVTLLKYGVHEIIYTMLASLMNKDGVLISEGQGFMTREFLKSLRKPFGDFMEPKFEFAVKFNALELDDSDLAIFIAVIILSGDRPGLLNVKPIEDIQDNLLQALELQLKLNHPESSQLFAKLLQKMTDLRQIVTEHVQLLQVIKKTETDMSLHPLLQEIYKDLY", "assay": "AlphaScreen or HTRF", "note": "No end group written: not given here. *: point of attachment. Biotin = O=C1N[C@H]2[C@H](CS[C@H]2CCCCC(=O)*)N1", "data": [{"binder": "B1", "values": [{"measurement": "binding result", "value": "binds"}]}, {"binder": "B2", "values": [{"measurement": "binding result", "value": "binds"}]}, {"binder": "B3", "values": [{"measurement": "binding result", "value": "binds"}]}, {"binder": "B4", "values": [{"measurement": "binding result", "value": "binds"}]}]}
